This is an account of results in paper PMC9063426, “MAP kinases differentially bind and phosphorylate NOS3 via two unique NOS3 sites” (FEBS Open Bio, 2022).

One test addresses ERK2 (UniProt P63086). As to the kind of experiment: BLI, biotinylated peptide on streptavidin sensor. On the technique in general: In BLI a coated tip is dipped into the sample, and binding shifts an interference pattern.
The target in test [1] is NOS3 NtMAP peptide (N-terminal MAP kinase site), biotinylated (human). As to the kind of experiment: BLI; N-terminally biotinylated NOS3 peptides on streptavidin sensors, inactive MAP kinases as analytes (31 to 1000 nM); 25 °C; PBS with 10% glycerol, 0.005% tween, 1 mM DTT; global one-state association-then-dissociation fit.
In test [2] the target is NOS3 AI peptide (autoinhibitory loop site), biotinylated (human). The test is described as above.
Test [3] concerns the target NtMAP peptide (NOS3 N-terminal MAP kinase site) (human). As to the kind of experiment: BLI; N-terminally biotinylated NOS3 peptides on streptavidin sensors, inactive MAP kinases as analytes at 31-1000 nM; 25 °C; PBS with 10% glycerol, 0.005% tween, 1 mM DTT; global one-state association-then-dissociation fit.
Test [4] addresses AI peptide (NOS3 autoinhibitory loop site) (human). Described as above.

A word on the koff: it is a measure of how fast the partners let go of each other. For orientation: kon means a measure of how fast the partners come together. A word on the Kd: it is the equilibrium constant for the complex coming apart. Low readings indicate higher affinity, high ones lower affinity.

In the case of “NOS3 (eNOS) autoinhibitory (AI) loop site (from UniProt P29474) AI pS633 peptide”, in the test with ERK2 (reference: unphosphorylated AI peptide, sites S633), the KD entry is “lost; reference 170”.

As for “ERK2, inactive (unphosphorylated), His-purified (from UniProt P63086 1-358) (enzyme)”, the off-rate constant (koff) in test [1] stood at 0.00623 s⁻¹; in test [2] it was 0.00207 s⁻¹; in test [3] it was 0.062 s⁻¹; in test [4] it was 0.002 s⁻¹. The kon was 6600 M⁻¹ s⁻¹ in test [1], 12100 M⁻¹ s⁻¹ in test [2], 6600 M⁻¹ s⁻¹ in test [3] and 12000 M⁻¹ s⁻¹ in test [4]. Besides, the Kd in test [3] worked out at 940 nM; in test [4], 170 nM.

For “NOS3 (eNOS) NtMAP site (from UniProt P29474) NtMAP pS114 peptide”, the KD entry in the test with ERK2 (reference: unphosphorylated NtMAP peptide, sites S114) is recorded as “lost; reference 940”.

For “GST-JNK1α1, inactive (unphosphorylated), made in house (from UniProt P45983-2 1-384) (enzyme)”, the koff in test [1] was found to be 0.000543 s⁻¹; in test [2], 0.00025 s⁻¹; in test [3] it was 0.00054 s⁻¹. For the same substance, the on-rate constant (kon) in test [1] amounted to 14100 M⁻¹ s⁻¹; in test [2], 84600 M⁻¹ s⁻¹; in test [3], 14000 M⁻¹ s⁻¹; in test [4], 84000 M⁻¹ s⁻¹. Besides, the equilibrium dissociation constant (Kd) in test [3] was 38 nM; in test [4], 3 nM.
